# B1: HDV Ribozyme (parent)
# chain: GGCCGGCAUGGUCCCAGCCUCCUCGCUGGCGCCGGCUGGGCAACAUUCCGAGGGGACCGUCCCCUCGGUAAUGGCGAAUGGGACCCA
# Variants of: B1
# Assay: self-cleavage, relative activity (ratio to wild type); higher = more cleavage; co-transcriptional
row,Variant,self-cleavage
1,A42C C57U,0.203
2,C7U C26G,0.534
3,G2U C63G,0.0528
4,G73C C84A,0.277
5,G82A C86A,0.729
6,G11A C62U,0.354
7,U9G A51G,0.95
8,U69C G74U,0.575
9,C18U C41G,0.0314
10,A56U G74A,0.681
11,C44U G50U,0.772
12,G39C A83G,0.317
13,G39C A83C,0.243
14,G29C C63U,0
15,A42C C48A,0.361
16,C26A C33G,0.317
17,C24A C75A,0.219
18,G25A G55U,0.128
19,C7G A56C,0.391
20,G52C C64A,0.753
21,A51G U69A,1.11
22,C64A C85U,0.72
23,G53C G59U,0.967
24,C33G U46C,0.185

row,Variant,self-cleavage
1,A56C C75U,0.0723
2,A51U G80U,0.257
3,G28A A70G,0.032
4,G34U G55C,0.102
5,G11C G52U,0.228
6,C36G U79A,0.095
7,G17A A56G,0.59
8,C24A G39C,0.0692
9,U12C C19U,0.0415
10,C7A U20G,0.312
11,U37G G38C,0.192
12,U37G G82C,0.128
13,G68A C85A,0.831
14,C49U G76U,1.18
15,C26G G73A,0.57
16,C14A G80A,0.565
17,G59C G68A,0.906
18,G29C U46C,0.0755
19,A56G U69A,0.906
20,C49G C75G,0.299
21,C26A G55A,0.888
22,C49A G67A,1.27
23,U27G A78G,0.532
24,G11C U60A,0.0831

row,Variant,self-cleavage
1,G17A G25C,0.158
2,C30U G59C,0.67
3,G29C G40U,0.0615
4,U23A G74A,0.465
5,G17A A77U,0.138
6,C41A C75G,0.0773
7,G25C C86A,0.128
8,G53C G73A,0.782
9,C13U C62U,0.589
10,C63U C64A,0.831
11,G2U C7A,0.013
12,C33U G67U,0.816
13,C18U C44A,0.0978
14,U65A G82C,0.614
15,U65A G82A,0.281
16,G1A A45G,0.185
17,G39U C57G,0.786
18,C62U U65A,1.08
19,C13U G50A,0.439
20,U27A C49A,0.831
21,G40C C64G,0.242
22,G74C G76A,0.208
23,G74C G76U,0.175
24,G34U C58G,0.0811

row,Variant,self-cleavage
1,G39A G50C,0.504
2,U60C G68U,1.2
3,G52U C61A,1.02
4,C66U C75U,0.173
5,G28U C36A,0.0898
6,C49U C63U,0.958
7,G55C C64U,1.12
8,C48G U65C,0.931
9,C21G C24A,0.0437
10,C15A U23C,0.748
11,C13A G59A,0.166
12,G2A C75A,0.0542
13,C13A A78C,0.0297
14,G6C G52U,0.237
15,C19G C30U,0.0462
16,C3A A16C,0.0875
17,C18G U46A,0.145
18,C18G C48G,0.175
19,C15A U60A,0.623
20,G2U A70C,0.0373
21,G52U G76C,0.921
22,U72A A83U,0.166
23,G6U G73A,0.113
24,A8G G34A,0.095

row,Variant,self-cleavage
1,C30G G35A,0.191
2,C61U G76A,1.19
3,C61U G76C,1.05
4,A51G G68U,0.831
5,G29A A78C,0.0997
6,A51G G54C,1.37
7,C3U G68A,0.831
8,A43C U46G,0.415
9,G38A C86A,0.247
10,A16U U37C,0.929
11,C13G G50A,0.131
12,C4U G73C,0.242
13,G6A A83U,0.324
14,G50A U79A,0.88
15,G25A C58U,0.248
16,G29C G59C,0.123
17,C4G C49U,0.612
18,A45C G53U,0.712
19,A43C C64U,0.391
20,C18A C75U,0.0665
21,U20C C58U,0
22,C7G C64U,0.396
23,G55U A77U,0.453
24,C30A C57G,0.284

row,Variant,self-cleavage
1,A8C G81C,0.166
2,U37A C84A,0.128
3,U65G A71G,0.917
4,C33G G50U,0.131
5,C30A U69G,0.469
6,G29U G53C,0.125
7,C15A G52A,0.708
8,U12A A77C,0.0755
9,C44A U72C,0.467
10,C26G U69G,0.787
11,U20G C48U,0.237
12,C13G C63A,0.0906
13,G35A C86G,0.739
14,U20C A71G,0.0978
15,A16G C84G,0.623
16,C49A U79C,0.61
17,C14G C41U,0.462
18,C13U U37C,0.369
19,A8C G35U,0.269
20,U9A C30U,0.776
21,U23A A43U,0.481
22,A71C G73C,0.378
23,A8U,0.863
24,G17U C22G,0.095

row,Variant,self-cleavage
1,C61A G81A,0.354
2,G35C C49G,0.0449
3,U72C G82C,0.26
4,C3A C64U,0.65
5,C22A C62U,0.387
6,G10U U20A,0.0639
7,U9A G25A,0.426
8,G68U C86A,0.956
9,C41A,0.94
10,G67U G76U,1.08
11,G10U G55U,0.787
12,G29C G52C,0.208
13,C3A C36U,0.0915
14,U47G A56U,1.11
15,U20A C84G,0.196
16,C24G C33A,0.244
17,C49G G82A,0.0966
18,G5A G81C,0.0791
19,C48G G50A,0.798
20,C14A G28A,0.141
21,C24G C49A,0.0804
22,G80U G82A,0.0297
23,G5U U79C,0.123
24,G2C U12A,0.17

row,Variant,self-cleavage
1,G38A C58U,0.175
2,G39A U69G,0.305
3,A8U G38C,0.095
4,A8G G82A,0.237
5,U23C G50A,0.95
6,C33A G38U,0.153
7,G53A U72G,0.429
8,A8C U60C,0.489
9,G11C C19A,0.0314
10,A43U C58A,0.614
11,C22U G68C,0.345
12,G35U C66U,0.459
13,G17U G35A,0.133
14,G5U G67C,0.582
15,A43G G67A,0.804
16,C14U G28A,0.0811
17,C7U G10U,0.374
18,C13U C61G,0.684
19,G1C G54U,0.396
20,C13U U72C,0.252
21,C22G G25C,0.0665
22,U65C G76U,1.14
23,A8C C49U,0.567
24,C41G G80A,0.431

row,Variant,self-cleavage
1,C4U A77G,0.578
2,C64U A87G,1.04
3,C7U C86A,0.872
4,U12C C66A,0.332
5,G1A C48U,0
6,G28A C63G,0.148
7,U37A U60A,0.111
8,G6A C21G,0.203
9,G17A G38C,0.0791
10,C13G G38U,0.0292
11,C64U G81A,0.318
12,A56U C64A,0.899
13,C7U U37C,1.14
14,A45C C64U,0.73
15,C32A A45G,0.198
16,A43U A45G,0.57
17,C13A C26U,0.764
18,C48U A83G,0.671
19,C24G C75A,0.0277
20,C19A U60C,0.107
21,U9C C14A,0.982
22,U23C A42U,0.415
23,G6U U60A,0.571
24,U12C U37A,0.147

row,Variant,self-cleavage
1,A42C A77G,0.156
2,G2C G74U,0.1
3,G28A A56G,0.135
4,G1U G50C,0.203
5,G17U G80C,0.102
6,A45U G50C,0.767
7,U46A G59C,0.57
8,C14A A71U,0.852
9,C21A A43G,0.132
10,C57G U69G,1.2
11,G31A A87G,0.352
12,A77G A78U,0.266
13,G34U C64G,0.277
14,U47C U72C,0.712
15,C64G A71G,1.11
16,G50U G52A,0.799
17,C14G C84U,0.415
18,C7A C61U,0.441
19,C21U G82U,0.115
20,U12A C48A,0.244
21,U12C G34U,0.0396
22,G40U G73A,0.463
23,G17C G25C,0.0475
24,G54C U65G,0.8

row,Variant,self-cleavage
1,C36A G38A,0.0845
2,C26A G52A,1.06
3,C15A G55U,0.608
4,G29U C49G,0.133
5,C26G G29U,0.119
6,C14A C21A,0.0652
7,G17U U23C,0.219
8,C26G U79G,0.8
9,G54A G68U,0.641
10,C19A U72C,0.0978
11,C24A G25A,0.102
12,A16C C18A,0.0665
13,G53C U72A,0.601
14,G6A G40A,0.505
15,G10A G52U,0.838
16,G25A U72G,0.104
17,G6C C64G,0.344
18,A42G U69C,0.462
19,U12A C33A,0.0604
20,C58U G76C,0.935
21,G10A C48A,0.739
22,C32G A83G,0
23,U9G G31C,0.378
24,G59A A78G,0.631

row,Variant,self-cleavage
1,U37G C84A,0.161
2,G1U A56U,0.394
3,C19G C61G,0.0378
4,G6A C86A,0.536
5,G6A C33G,0.0536
6,G1U G38C,0.369
7,G73A G80C,0.165
8,G55C C62A,1.04
9,C4U A87C,0.708
10,C3G A77U,0.0297
11,G28U A43G,0.131
12,C13U A77G,0.399
13,G1A U27A,0
14,C13U C49G,0.426
15,C66U G80A,0.475
16,C3G C57G,0.891
17,C57U A71C,0.923
18,G6A C48G,0.657
19,C58U A83C,0.403
20,G80C C85U,0.194
21,C18G G74C,0.142
22,G10A C21G,0.126
23,G73U C86U,0.448
24,U20A C85A,0.26

row,Variant,self-cleavage
1,G28C G35A,0.0326
2,G40A G59U,0.987
3,C22G G53A,0.0779
4,G10A G55U,0.698
5,C19A C63U,0.1
6,C19A C63G,0.256
7,G74A A77C,0.231
8,C19U C66G,0.155
9,G29U U79C,0.122
10,C21U C22A,0.0482
11,C44A C49G,0.511
12,U9C G81A,0.415
13,G2A U79G,0.089
14,A42G C86G,0.597
15,C21G A71G,0.0594
16,C14A C32A,0.148
17,G68U C84G,0.525
18,U46G A56C,0.959
19,C19A G68U,0.178
20,U23G A56C,0.978
21,G40A C44G,0.302
22,C26G C32G,0.203
23,U23C A70C,0.939
24,G5C G39U,0.0346

row,Variant,self-cleavage
1,G39A C75G,0.143
2,C62U C85U,0.964
3,G29U A77U,0.117
4,G17U U69G,0.534
5,C15G G81A,0.297
6,C3A C84G,0.158
7,U20A A70U,0.0615
8,U72G C75G,0.262
9,A43G A56G,0.26
10,A51G C63G,0.538
11,G10A G59C,0.684
12,G40U G81A,0.328
13,G2A U65A,0.173
14,C13G U20A,0
15,G17A G67U,0.776
16,G28C G55A,0.18
17,G1A C15G,0
18,G2A G25A,0.0346
19,A16U A71G,0.782
20,C64A U72C,0.465
21,A16C C86U,0.739
22,G6U C57U,0.573
